Tested on: Escherichia coli TOP10
Test: shrunken log2 fold change of peptide-encoding DNA abundance (4.5 h post-induction vs induction); higher = less antimicrobial activity (less host growth inhibition)
Settings: time post-induction: 4.5 h; library: site-saturation at positions 5, 18, 19, 20
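Also: peptides expressed intracellularly from a pBAD plasmid library in pooled LB shake-flask culture, induced with 0.3% L-arabinose, DNA abundance read by NGS, three biological replicates, DESeq2 with apeglm shrinkage.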

Row | Sequence | shrunken log2 fold change
1 | RRIRERPPRLPRPRPRPTWTPRP | -0.07
2 | RRIRERPPRLPRPRPRPVCEPRP | 0.162
3 | RRIRERPPRLPRPRPRPVCPPRP | -0.162
4 | RRIRERPPRLPRPRPRPVDPPRP | -0.342
5 | RRIRERPPRLPRPRPRPVDSPRP | -0.0113
6 | RRIRERPPRLPRPRPRPVFGPRP | -0.0574
7 | RRIRERPPRLPRPRPRPVGSPRP | -0.174
8 | RRIRERPPRLPRPRPRPVIDPRP | -0.0264
9 | RRIRERPPRLPRPRPRPVIEPRP | -0.201
10 | RRIRERPPRLPRPRPRPVIVPRP | -0.373
11 | RRIRERPPRLPRPRPRPVLEPRP | -0.0875
12 | RRIRERPPRLPRPRPRPVLRPRP | -0.156
13 | RRIRERPPRLPRPRPRPVLYPRP | -0.00668
14 | RRIRERPPRLPRPRPRPVNHPRP | -0.229
15 | RRIRERPPRLPRPRPRPVNVPRP | -0.531
16 | RRIRERPPRLPRPRPRPVPSPRP | -0.0655
17 | RRIRERPPRLPRPRPRPVQIPRP | 0.27
18 | RRIRERPPRLPRPRPRPVRKPRP | -0.0457
19 | RRIRERPPRLPRPRPRPVRRPRP | -0.172
20 | RRIRERPPRLPRPRPRPVTHPRP | -0.194
21 | RRIRERPPRLPRPRPRPVVFPRP | -0.0884
22 | RRIRERPPRLPRPRPRPVVHPRP | -0.0247
23 | RRIRERPPRLPRPRPRPVVPPRP | -0.158
24 | RRIRERPPRLPRPRPRPVWNPRP | -0.165
25 | RRIRERPPRLPRPRPRPVYEPRP | -0.445

Row | Sequence | shrunken log2 fold change
26 | RRIRERPPRLPRPRPRPWCEPRP | -0.349
27 | RRIRERPPRLPRPRPRPWFKPRP | -0.0858
28 | RRIRERPPRLPRPRPRPWFSPRP | -0.336
29 | RRIRERPPRLPRPRPRPWGSPRP | -0.0459
30 | RRIRERPPRLPRPRPRPWHKPRP | -0.236
31 | RRIRERPPRLPRPRPRPWIIPRP | -0.269
32 | RRIRERPPRLPRPRPRPWIQPRP | -0.0122
33 | RRIRERPPRLPRPRPRPWKVPRP | -0.0109
34 | RRIRERPPRLPRPRPRPWMHPRP | -0.126
35 | RRIRERPPRLPRPRPRPWNCPRP | -0.327
36 | RRIRERPPRLPRPRPRPWNQPRP | -0.124
37 | RRIRERPPRLPRPRPRPWPYPRP | 0.00489
38 | RRIRERPPRLPRPRPRPWQLPRP | -0.072
39 | RRIRERPPRLPRPRPRPWRMPRP | -0.13
40 | RRIRERPPRLPRPRPRPWRVPRP | -0.0327
41 | RRIRERPPRLPRPRPRPWSFPRP | -0.0191
42 | RRIRERPPRLPRPRPRPWSQPRP | -0.0521
43 | RRIRERPPRLPRPRPRPWVGPRP | 0.0249
44 | RRIRERPPRLPRPRPRPWVPPRP | 0.0883
45 | RRIRERPPRLPRPRPRPWVWPRP | 0.0922
46 | RRIRERPPRLPRPRPRPWWVPRP | -0.056
47 | RRIRERPPRLPRPRPRPYAHPRP | -0.0128
48 | RRIRERPPRLPRPRPRPYCRPRP | -0.394
49 | RRIRERPPRLPRPRPRPYDMPRP | -0.222
50 | RRIRERPPRLPRPRPRPYEEPRP | -0.636

Row | Sequence | shrunken log2 fold change
51 | RRIRERPPRLPRPRPRPYENPRP | 0.0288
52 | RRIRERPPRLPRPRPRPYGQPRP | -0.315
53 | RRIRERPPRLPRPRPRPYHTPRP | 0.0711
54 | RRIRERPPRLPRPRPRPYIAPRP | -0.946
55 | RRIRERPPRLPRPRPRPYINPRP | -0.248
56 | RRIRERPPRLPRPRPRPYIYPRP | -0.254
57 | RRIRERPPRLPRPRPRPYKEPRP | -0.117
58 | RRIRERPPRLPRPRPRPYLRPRP | -0.319
59 | RRIRERPPRLPRPRPRPYMIPRP | -0.259
60 | RRIRERPPRLPRPRPRPYNEPRP | -0.178
61 | RRIRERPPRLPRPRPRPYNPPRP | 0.00932
62 | RRIRERPPRLPRPRPRPYNSPRP | -0.0287
63 | RRIRERPPRLPRPRPRPYQTPRP | -0.135
64 | RRIRERPPRLPRPRPRPYREPRP | -0.00865
65 | RRIRERPPRLPRPRPRPYRGPRP | -0.00417
66 | RRIRERPPRLPRPRPRPYRSPRP | -1.42
67 | RRIRERPPRLPRPRPRPYSKPRP | -0.464
68 | RRIRERPPRLPRPRPRPYTLPRP | -0.338
69 | RRIRERPPRLPRPRPRPYTSPRP | -0.141
70 | RRIRERPPRLPRPRPRPYVCPRP | -1.6
71 | RRIRERPPRLPRPRPRPYWFPRP | -1.02
72 | RRIRERPPRLPRPRPRPYWTPRP | -0.0954
73 | RRIRERPPRLPRPRPRPYWYPRP | -1.83
74 | RRIRERPPRLPRPRPRPYYFPRP | -1.04
75 | RRIRFRPPRLPRPRPRPADKPRP | 0.0852

Row | Sequence | shrunken log2 fold change
76 | RRIRFRPPRLPRPRPRPAEDPRP | 0.0423
77 | RRIRFRPPRLPRPRPRPAELPRP | 0.281
78 | RRIRFRPPRLPRPRPRPAEQPRP | 1.16
79 | RRIRFRPPRLPRPRPRPAGDPRP | 0.378
80 | RRIRFRPPRLPRPRPRPAGFPRP | 0.0553
81 | RRIRFRPPRLPRPRPRPAGYPRP | 0.00702
82 | RRIRFRPPRLPRPRPRPAHPPRP | 0.267
83 | RRIRFRPPRLPRPRPRPAHQPRP | -0.15
84 | RRIRFRPPRLPRPRPRPAHSPRP | -0.156
85 | RRIRFRPPRLPRPRPRPAKEPRP | 0.0148
86 | RRIRFRPPRLPRPRPRPAKMPRP | 0.207
87 | RRIRFRPPRLPRPRPRPALSPRP | 0.319
88 | RRIRFRPPRLPRPRPRPALYPRP | -0.155
89 | RRIRFRPPRLPRPRPRPAMMPRP | 0.0488
90 | RRIRFRPPRLPRPRPRPAMQPRP | 0.109
91 | RRIRFRPPRLPRPRPRPANLPRP | -0.296
92 | RRIRFRPPRLPRPRPRPAPGPRP | 0.668
93 | RRIRFRPPRLPRPRPRPAPRPRP | 0.84
94 | RRIRFRPPRLPRPRPRPAPVPRP | 0.323
95 | RRIRFRPPRLPRPRPRPAQDPRP | 0.381
96 | RRIRFRPPRLPRPRPRPARGPRP | 0.624
97 | RRIRFRPPRLPRPRPRPARLPRP | 0.175
98 | RRIRFRPPRLPRPRPRPATQPRP | -0.00992
99 | RRIRFRPPRLPRPRPRPAVKPRP | -0.137
100 | RRIRFRPPRLPRPRPRPAVVPRP | -0.231

Row | Sequence | shrunken log2 fold change
101 | RRIRFRPPRLPRPRPRPAYQPRP | -0.135
102 | RRIRFRPPRLPRPRPRPAYTPRP | -0.876
103 | RRIRFRPPRLPRPRPRPCCTPRP | -0.337
104 | RRIRFRPPRLPRPRPRPCDGPRP | -0.0604
105 | RRIRFRPPRLPRPRPRPCFPPRP | -0.407
106 | RRIRFRPPRLPRPRPRPCFQPRP | -0.227
107 | RRIRFRPPRLPRPRPRPCGWPRP | 0.42
108 | RRIRFRPPRLPRPRPRPCGYPRP | -0.0542
109 | RRIRFRPPRLPRPRPRPCHMPRP | -0.285
110 | RRIRFRPPRLPRPRPRPCHQPRP | -0.188
111 | RRIRFRPPRLPRPRPRPCIPPRP | 0.0633
112 | RRIRFRPPRLPRPRPRPCKYPRP | -0.373
113 | RRIRFRPPRLPRPRPRPCLDPRP | -0.35
114 | RRIRFRPPRLPRPRPRPCMMPRP | -0.0025
115 | RRIRFRPPRLPRPRPRPCMTPRP | 0.162
116 | RRIRFRPPRLPRPRPRPCNEPRP | -0.0116
117 | RRIRFRPPRLPRPRPRPCNHPRP | -0.41
118 | RRIRFRPPRLPRPRPRPCNQPRP | -0.649
119 | RRIRFRPPRLPRPRPRPCNYPRP | -0.72
120 | RRIRFRPPRLPRPRPRPCQEPRP | 0.176
121 | RRIRFRPPRLPRPRPRPCREPRP | -0.0892
122 | RRIRFRPPRLPRPRPRPCSHPRP | -0.336
123 | RRIRFRPPRLPRPRPRPCSSPRP | 0.0898
124 | RRIRFRPPRLPRPRPRPCYMPRP | 1.54
125 | RRIRFRPPRLPRPRPRPCYSPRP | 0.019

Row | Sequence | shrunken log2 fold change
126 | RRIRFRPPRLPRPRPRPDAFPRP | -0.491
127 | RRIRFRPPRLPRPRPRPDCEPRP | 0.175
128 | RRIRFRPPRLPRPRPRPDCMPRP | -0.286
129 | RRIRFRPPRLPRPRPRPDDTPRP | 0.0516
130 | RRIRFRPPRLPRPRPRPDEKPRP | -0.0935
131 | RRIRFRPPRLPRPRPRPDFCPRP | -0.0235
132 | RRIRFRPPRLPRPRPRPDGVPRP | -0.14
133 | RRIRFRPPRLPRPRPRPDHAPRP | -0.102
134 | RRIRFRPPRLPRPRPRPDHLPRP | -0.00942
135 | RRIRFRPPRLPRPRPRPDIRPRP | 0.0306
136 | RRIRFRPPRLPRPRPRPDIWPRP | -0.273
137 | RRIRFRPPRLPRPRPRPDLWPRP | 0.187
138 | RRIRFRPPRLPRPRPRPDMSPRP | -0.0802
139 | RRIRFRPPRLPRPRPRPDPAPRP | 0.266
140 | RRIRFRPPRLPRPRPRPDQSPRP | 0.0148
141 | RRIRFRPPRLPRPRPRPDRKPRP | 0.00132
142 | RRIRFRPPRLPRPRPRPDSIPRP | -0.0087
143 | RRIRFRPPRLPRPRPRPDTAPRP | -0.22
144 | RRIRFRPPRLPRPRPRPDTEPRP | -0.776
145 | RRIRFRPPRLPRPRPRPDTGPRP | -0.356
146 | RRIRFRPPRLPRPRPRPDVSPRP | 0.0432
147 | RRIRFRPPRLPRPRPRPDYFPRP | -0.167
148 | RRIRFRPPRLPRPRPRPEAYPRP | -0.0029
149 | RRIRFRPPRLPRPRPRPECCPRP | 0.225
150 | RRIRFRPPRLPRPRPRPECPPRP | 0.0177

Source: the supplement of paper PMC9112550, “Optimization of the antimicrobial peptide Bac7 by deep mutational scanning” (BMC Biology, 2022)
